# According to publication PMC3810134, “Substrate and Inhibitor Specificity of the Type II p21-Activated Kinase, PAK6” (PLoS ONE, 2013):
# B1: full-length WT GFP-PAK6: full-length wild-type PAK6 fused to GFP, transfected in HEK293 cells (protein, UniProt Q9NQU5 1-681, looked up)
# chain: MFRKKKKKRPEISAPQNFQHRVHTSFDPKEGKFVGLPPQWQNILDTLRRPKPVVDPSRITRVQLQPMKTVVRGSAMPVDGYISGLLNDIQKLSVISSNTLRGRSPTSRRRAQSLGLLGDEHWATDPDMYLQSPQSERTDPHGLYLSCNGGTPAGHKQMPWPEPQSPRVLPNGLAAKAQSLGPAEFQGASQRCLQLGACLQSSPPGASPPTGTNRHGMKAAKHGSEEARPQSCLVGSATGRPGGEGSPSPKTRESSLKRRLFRSMFLSTAATAPPSSSKPGPPPQSKPNSSFRPPQKDNPPSLVAKAQSLPSDQPVGTFSPLTTSDTSSPQKSLRTAPATGQLPGRSSPAGSPRTWHAQISTSNLYLPQDPTVAKGALAGEDTGVVTHEQFKAALRMVVDQGDPRLLLDSYVKIGEGSTGIVCLAREKHSGRQVAVKMMDLRKQQRRELLFNEVVIMRDYQHFNVVEMYKSYLVGEELWVLMEFLQGGALTDIVSQVRLNEEQIATVCEAVLQALAYLHAQGVIHRDIKSDSILLTLDGRVKLSDFGFCAQISKDVPKRKSLVGTPYWMAPEVISRSLYATEVDIWSLGIMVIEMVDGEPPYFSDSPVQAMKRLRDSPPPKLKNSHKVSPVLRDFLERMLVRDPQERATAQELLDHPFLLQTGLPECLVPLIQLYRKQTSTC
# modifications: full-length GFP fusion
# notes: full-length wild-type PAK6 fused to GFP, transfected in HEK293 cells
# B2: P52L mutant: full-length GFP-PAK6 with melanoma-associated P52L mutation, transfected in HEK293 cells (protein, UniProt Q9NQU5 1-681, looked up, variant P52L)
# chain: MFRKKKKKRPEISAPQNFQHRVHTSFDPKEGKFVGLPPQWQNILDTLRRPKLVVDPSRITRVQLQPMKTVVRGSAMPVDGYISGLLNDIQKLSVISSNTLRGRSPTSRRRAQSLGLLGDEHWATDPDMYLQSPQSERTDPHGLYLSCNGGTPAGHKQMPWPEPQSPRVLPNGLAAKAQSLGPAEFQGASQRCLQLGACLQSSPPGASPPTGTNRHGMKAAKHGSEEARPQSCLVGSATGRPGGEGSPSPKTRESSLKRRLFRSMFLSTAATAPPSSSKPGPPPQSKPNSSFRPPQKDNPPSLVAKAQSLPSDQPVGTFSPLTTSDTSSPQKSLRTAPATGQLPGRSSPAGSPRTWHAQISTSNLYLPQDPTVAKGALAGEDTGVVTHEQFKAALRMVVDQGDPRLLLDSYVKIGEGSTGIVCLAREKHSGRQVAVKMMDLRKQQRRELLFNEVVIMRDYQHFNVVEMYKSYLVGEELWVLMEFLQGGALTDIVSQVRLNEEQIATVCEAVLQALAYLHAQGVIHRDIKSDSILLTLDGRVKLSDFGFCAQISKDVPKRKSLVGTPYWMAPEVISRSLYATEVDIWSLGIMVIEMVDGEPPYFSDSPVQAMKRLRDSPPPKLKNSHKVSPVLRDFLERMLVRDPQERATAQELLDHPFLLQTGLPECLVPLIQLYRKQTSTC
# modifications: full-length GFP fusion
# notes: full-length GFP-PAK6 with melanoma-associated P52L mutation, transfected in HEK293 cells
# Test system: PACSIN1 phosphorylation (Ser343) in HEK293 cells
# Experiment: Cell-based assay: phospho-PACSIN1 on co-transfection with PAK6 constructs in HEK293 cells
# Settings: co-transfection with myc-PACSIN1, 24 h
# Description: HEK293 cells were grown at 37°C with 5% CO2 in Dulbecco’s modified Eagle’s medium (DMEM) supplemented with 10% fetal bovine serum and penicillin/streptomycin. Cells were transfected with pCMV6-myc-PACSIN1 (kindly provided by J. Peterson) and pEGFP-C2, pEGFP-PAK6-WT, pEGFP-PAK6-P52L, pEGFP-PAK6-N (N-terminus, residues 1–382) or pEGFP-PAK6-CAT (catalytic domain, residues 383–674) using polyethylenimine (PEI, Polysciences Inc.). Twenty four hours later, cells were trypsinized, quenched with complete medium, washed with PBS and lysed in buffer containing 20 mM Tris (pH 8.0), 200 mM NaCl, 1 mM EDTA, 1% Triton X-100, Complete Protease Inhibitor Cocktail (Roche), and phosphatase inhibitors (1 mM Na3VO4, 10 mM NaF, 10 mM β-glycerol phosphate) for 10 minutes at 4°C. Samples were resolved by SDS-PAGE and were assessed by immunoblotting using the following antibodies: goat anti-GFP (1∶1000; Rockland), mouse anti-myc (9E10, 1∶1000; Santa Cruz Biotechnology), rabbit anti-phospho-PACSIN1 (1∶2000; gift of J. Peterson), mouse anti-vinculin (1∶10,000; Sigma), anti-goat or anti-rabbit IgG AlexaFluor680 (1∶5000, Invitrogen), anti-mouse IgG IRDye800 (1∶5000, Li-Cor). Bands visualized using a Li-Cor Oddysey imager and were quantified using ImageJ. A ratio of phospho-PACSIN1 to total PACSIN1 was calculated by dividing the total phospho-PACSIN1 signal by the myc signal.
Molecule,phosphorylation of PACSIN1 at Ser343 compared to GFP alone or GFP-PAK6 N-terminus (phospho-PACSIN1 immunoblot),"phosphorylation of PACSIN1 compared to wild-type PAK6 (phospho-PACSIN1/total PACSIN1 (myc), n = 4, Student's t-test)"
B1,increased phosphorylation of PACSIN1 at Ser343,–
B2,–,significantly increased phosphorylation
